According to publication PMC3597659:
Where two headings read alike, the source gives them in different places.

Columns and labels:
HMGB1-WT [1] = target: T1, HMGB1-WT (Homo sapiens, UniProt P09429 2-215); experiment: fluorescence anisotropy
RAG1c (core RAG1) [2] = target: T2, RAG1c (core RAG1) (Mus musculus, UniProt P15919 384-1008); experiment: fluorescence anisotropy
T2 sequence: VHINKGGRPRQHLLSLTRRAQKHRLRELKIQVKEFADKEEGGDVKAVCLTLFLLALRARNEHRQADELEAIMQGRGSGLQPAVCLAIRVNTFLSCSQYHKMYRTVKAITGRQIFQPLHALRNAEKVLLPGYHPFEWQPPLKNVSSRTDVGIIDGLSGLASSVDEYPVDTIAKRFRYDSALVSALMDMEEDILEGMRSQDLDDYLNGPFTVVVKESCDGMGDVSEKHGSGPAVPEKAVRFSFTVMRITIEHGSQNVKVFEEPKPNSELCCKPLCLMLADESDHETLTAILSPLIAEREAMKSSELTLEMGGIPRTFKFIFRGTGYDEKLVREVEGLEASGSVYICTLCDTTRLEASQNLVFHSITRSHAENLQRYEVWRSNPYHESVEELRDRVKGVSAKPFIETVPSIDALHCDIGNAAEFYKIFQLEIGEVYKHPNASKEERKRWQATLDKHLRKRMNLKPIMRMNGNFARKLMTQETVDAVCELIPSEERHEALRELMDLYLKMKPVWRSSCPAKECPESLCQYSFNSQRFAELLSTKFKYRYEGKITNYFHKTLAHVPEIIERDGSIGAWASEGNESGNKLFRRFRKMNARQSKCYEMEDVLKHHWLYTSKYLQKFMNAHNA

[3] = target: HMGB1-A488;RAG1c (core RAG1) (Homo sapiens;Mus musculus, UniProt P09429;P15919 2-215;384-1008, C23A;A34C;C45A;C106A|); experiment: fluorescence anisotropy
Chain of HMGB1-A488;RAG1c (core RAG1) (P09429 2-215 C23A/A34C/C45A/C106A, one chain of several): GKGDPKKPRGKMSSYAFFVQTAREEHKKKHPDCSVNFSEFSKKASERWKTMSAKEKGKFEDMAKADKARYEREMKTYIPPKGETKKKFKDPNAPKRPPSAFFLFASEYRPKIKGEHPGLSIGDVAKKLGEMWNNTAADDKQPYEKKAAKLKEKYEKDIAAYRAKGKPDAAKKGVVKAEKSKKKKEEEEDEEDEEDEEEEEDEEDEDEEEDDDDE

HMGB1-WT [4] = target: T1, HMGB1-WT; experiment: fluorescence anisotropy; remark: listed apart in the source
RAG1c (core RAG1) [5] = target: T2, RAG1c (core RAG1); experiment: fluorescence anisotropy; remark: listed apart in the source
[6] = target: HMGB1-WT;RAG1c (core RAG1);GST-RAG2c (core RAG2) (Homo sapiens;Mus musculus;Mus musculus, UniProt P09429;P15919;P21784 2-215;384-1008;1-387, ||); experiment: EMSA
Chain of HMGB1-WT;RAG1c (core RAG1);GST-RAG2c (core RAG2) (P09429 2-215, chain 1 of 2): as the sequence (P09429 2-215 C23A/A34C/C45A/C106A, one chain of several) above, with A22C, C33A, A44C, A105C counted along it
Chain of HMGB1-WT;RAG1c (core RAG1);GST-RAG2c (core RAG2) (P21784 1-387, chain 3 of 2): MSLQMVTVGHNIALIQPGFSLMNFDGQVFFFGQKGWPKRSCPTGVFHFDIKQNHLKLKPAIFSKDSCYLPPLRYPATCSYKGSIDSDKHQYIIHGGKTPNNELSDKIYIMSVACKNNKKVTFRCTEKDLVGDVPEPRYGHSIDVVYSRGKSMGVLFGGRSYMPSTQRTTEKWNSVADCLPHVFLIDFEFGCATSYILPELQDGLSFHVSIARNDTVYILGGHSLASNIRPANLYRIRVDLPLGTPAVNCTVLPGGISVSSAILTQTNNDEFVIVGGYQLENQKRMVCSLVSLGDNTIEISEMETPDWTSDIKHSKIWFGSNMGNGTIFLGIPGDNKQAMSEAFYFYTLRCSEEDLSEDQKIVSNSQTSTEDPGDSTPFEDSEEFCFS

[7] = target: T3, HMGB1-WT;RAG1c (core RAG1) (Homo sapiens;Mus musculus, UniProt P09429;P15919 2-215;384-1008, |); experiment: pull-down
T3 sequence (P09429 2-215, one chain of several): as the sequence (P09429 2-215 C23A/A34C/C45A/C106A, one chain of several) above, with A22C, C33A, A44C, A105C counted along it

HMGB1-A488 = HMGB1-A488 (Homo sapiens, UniProt P09429 2-215, C23A;A34C;C45A;C106A); experiment: EMSA
Chain of HMGB1-A488 (P09429 2-215 C23A/A34C/C45A/C106A): as the sequence (P09429 2-215 C23A/A34C/C45A/C106A, one chain of several) above

HMGB1-WT [8] = target: T1, HMGB1-WT; experiment: pull-down
[9] = target: T3, HMGB1-WT;RAG1c (core RAG1); experiment: pull-down; remark: listed apart in the source

T1 sequence (P09429 2-215): as the sequence (P09429 2-215 C23A/A34C/C45A/C106A, one chain of several) above, with A22C, C33A, A44C, A105C counted along it

B1: 23MUT-A488 (dsDNA)
DNA 1: GATCTGGCCTGTCTTAACGCAGTATGGAAGCTCAATCTGAACTCTGTGTCTCTGATCGAGCGGAG
DNA 2: CTCCGCTCGATCAGAGACACAGAGTTCAGATTGAGCTTCCATACTGCGTTAAGACAGGCCAGATC
Kd (HMGB1-WT [1]): 66 nM | Kd (RAG1c (core RAG1) [2]): 104 nM

B2: 23MUT (dsDNA)
DNA 1: GATCTGGCCTGTCTTAACGCAGTATGGAAGCTCAATCTGAACTCTGTGTCTCTGATCGAGCGGAG
DNA 2: CTCCGCTCGATCAGAGACACAGAGTTCAGATTGAGCTTCCATACTGCGTTAAGACAGGCCAGATC
binding result [3]: binds

B3: 23RSS-A488 (dsDNA)
DNA 1: GATCTGGCCTGTCTTACACAGTGATGGAAGCTCAATCTGAACTCTGACAAAAACCTCGAGCGGAG
DNA 2: CTCCGCTCGAGGTTTTTGTCAGAGTTCAGATTGAGCTTCCATCACTGTGTAAGACAGGCCAGATC
Kd (HMGB1-WT [4]): 57 nM | Kd (RAG1c (core RAG1) [5]): 78 nM

B4: 32P-23RSS (dsDNA)
DNA 1: GATCTGGCCTGTCTTACACAGTGATGGAAGCTCAATCTGAACTCTGACAAAAACCTCGAGCGGAG
DNA 2: CTCCGCTCGAGGTTTTTGTCAGAGTTCAGATTGAGCTTCCATCACTGTGTAAGACAGGCCAGATC
binding result [6]: binds

B5: 23RSS (dsDNA)
DNA 1: GATCTGGCCTGTCTTACACAGTGATGGAAGCTCAATCTGAACTCTGACAAAAACCTCGAGCGGAG
DNA 2: CTCCGCTCGAGGTTTTTGTCAGAGTTCAGATTGAGCTTCCATCACTGTGTAAGACAGGCCAGATC
binding result [3]: binds

B6: 23RSS-biotin (dsDNA)
DNA 1: GATCTGGCCTGTCTTACACAGTGATGGAAGCTCAATCTGAACTCTGACAAAAACCTCGAGCGGAG
DNA 2: CTCCGCTCGAGGTTTTTGTCAGAGTTCAGATTGAGCTTCCATCACTGTGTAAGACAGGCCAGATC
binding result [7]: binds

B7: four-way junction (4WJ) (structured_DNA)
DNA 1: CCTCCGTCCTAGCAAGGGGCTGCTACCGGAAGGG
DNA 2: CCCTTCCGGTAGCAGCCTGAGCGGTGGTTGAAGG
DNA 3: CCTTCAACCACCGCTCAACTCAACTGCAGTCTGG
DNA 4: CCAGACTGCAGTTGAGTCCTTGCTAGGACGGAGG
binding result (HMGB1-A488): binds

B8: 23SCR-biotin (dsDNA)
DNA 1: GCTGCGTCTCAAGTTACGCTGCGAGGAATCCTGGTAAGATCTGCGTTAAGTCGGATTCATCTACG
DNA 2: CGTAGATGAATCCGACTTAACGCAGATCTTACCAGGATTCCTCGCAGCGTAACTTGAGACGCAGC
binding result (HMGB1-WT [8]): binds | binding result [9]: binds

B9: 23SCR (dsDNA)
DNA 1: GCTGCGTCTCAAGTTACGCTGCGAGGAATCCTGGTAAGATCTGCGTTAAGTCGGATTCATCTACG
DNA 2: CGTAGATGAATCCGACTTAACGCAGATCTTACCAGGATTCCTCGCAGCGTAACTTGAGACGCAGC
binding result [3]: binds
